{"source": "the supplement of paper PMC9170038"}
{"tested_on": "K4 kissing-loop RNA reporter", "experiment": "apparent KD of K4 kissing-loop reporter; higher = weaker reporter binding", "settings": "Eterna round: R107; input ligand: arginine 13.2 mM", "procedure": "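RNA-MaP round R107: designed RNA switches with theophylline, tryptophan, arginine or FMN aptamers are transcribed on-chip within common flanks. They are titrated with a labelled K4 kissing-loop RNA reporter in RNA-MaP buffer (100 mM Tris pH 7.5, 80 mM KCl, 4 mM MgCl2), without ligand or with the indicated ligand. Median apparent KD per design.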", "units": {"apparent KD of K4 kissing-loop reporter": "nM"}}
{"sequence": "UGACUGGACUGAAGGAGCGUGGAAGGAGCGUAAGUAGUGAUGUUGCUUACAGGUAGGUCGCCGCAGGUAGGUCGCAGUCUAGUCU", "apparent KD of K4 kissing-loop reporter": 47.4}
{"sequence": "AGUGAUGUUGAGUUAUGUUAGUGAAGUGAUCGAGGACCGGUACGGCCGCCACUCGAGUGAUGAGUGAGUGAUGUUUGUUUAGUGA [bvbmullin]", "apparent KD of K4 kissing-loop reporter": 487}
{"sequence": "UGACUGGAUGGAAGGAGCGCUAAACUCCUAGUGAUGUUAGGGACACGAGACAAAGUCUUGAAGCAGGUAGGUCGCCAUCUAGUCU [FiskerMod 9 - Jieux - Same State - Arginine B]", "apparent KD of K4 kissing-loop reporter": 187}
{"sequence": "UCCUAGGCUCGAAAGAGCCUAGGAUUUACUCAGGAUAUCCGGAAACGGAGAAGGGAGUGACUAGUGAUGUUAGGGACUCCCUAUU", "apparent KD of K4 kissing-loop reporter": 81.7}
{"sequence": "UAAUAAUAAUGAUAAUAAUCAAGUGGUGGACGAGGACCGGUACGGCCGCCACUCGAAAAUGCAGUGAUGUUGUAAUACGGAUAAU [Exclusion - Tryptophan A (Freestyle 2)]", "apparent KD of K4 kissing-loop reporter": 180}
{"sequence": "AGCGACUCGAAAGGGUCGCGGCUAAGGGAUACCAGUGAUGUUGGUCACCCUUGGCAGCCCAGAAGCCAAGCCACCAAAGGUGGCA [Omei KL Theo A Exc A v10]", "apparent KD of K4 kissing-loop reporter": 99}
{"sequence": "AGGUGAGAGUGAAGGAGCGAUCGCGCCAGUGAUGUUGGUGAGCAUGACGAAAGUCAUGCCGAUCAGGUAGGUCGCACUCUUACUC [Omei KL Arginine B SS B v3]", "apparent KD of K4 kissing-loop reporter": 421}
{"sequence": "ACGAAAUGCGACUCCUAGUUACACCGGGAAGGAGCGCGGAUAACCGCAGGUAGGUCGCCCGGAAGCCGGACCAGUGAUGUUGGUC [Exclusion Arginine A Gf 27]", "apparent KD of K4 kissing-loop reporter": 273}
{"sequence": "UGUAUGGACUGAAGGAGCGCUAGGAGUGUGAGUGAUGUUCAUACAAAUGUAUAGAUGGUCUGGCAGGUAGGUCGCAGUCCAUACU [KL-SSArg B4]", "apparent KD of K4 kissing-loop reporter": 145}
{"sequence": "CCCAAGGGCCUACCGGUAUGAUGGACGGAUACCAGAGGCGAAAGCCUCCCUUGGCAGCCGGGUGUAGUGAUGUUACUCCGGUAGU", "apparent KD of K4 kissing-loop reporter": 65.8}
{"sequence": "GCGGGCCAGACGGCCGCCACUCCGGGCAGUGAUGUUGCGAAACUUCUACUAGAGUGAUGUUCUACGAGGACCGGGUCGGAACGCG [Exclusion Tryptophan B Gf 13]", "apparent KD of K4 kissing-loop reporter": 703}
{"sequence": "UCGAUGGCCAGCGAUACCAGCCCAGUGAUGUUGGGCACAUGGUUGCGGGAAAUCCCAUUGGGCCCUUGGCAGCGCUUGCAUAGGU [Cezaat]", "apparent KD of K4 kissing-loop reporter": 155}
{"sequence": "CAAAUGUUGUCAGGAUAUGAGCGCAGUGAUGUUGCGGUUGUAUUUAUGACUGGAGCAGCGUAAGCCUCAGAAGGGACAAGUUGCC [Qubioran]", "apparent KD of K4 kissing-loop reporter": 92.2}
{"sequence": "AGCUGUAGCAGAAGGAGCGACAGUUAUUCUGAUAGUACUCUGAGUGAUGUUCAGAACGACUGUCAGGUAGGUCGCUGUUACAGCU [Arg B Ex t8b]", "apparent KD of K4 kissing-loop reporter": 167}
{"sequence": "UACUAUAUUCUGUCGUUUAUAUUAUUUUGUCAGGAUAUCGUUUAUUCGAGAAGGGACACUAUCUAGUGAUGUUAGAUUUUUCUUU [JR_Nu_ExcFMNA_Sub029]", "apparent KD of K4 kissing-loop reporter": 130}
{"sequence": "AGGAUGUAGUGAUGUUAUAUAAGAAGUAAACGAGGACCGGUACGGCCGCCACUCGAAGCGGCUACUAGCGCGCGCGCGCGCGCGC [ExTryptoA.Ca]", "apparent KD of K4 kissing-loop reporter": 345}
{"sequence": "GGUGUUGUUUGUGCCGCCUUCCUCGUUCCUCGAGGACCGGUACGGCCGCCACUCGAGUGAUGUUUGGGUAGCGAUCCCUGCUAGU [Bdazzled - #12 Exc. Tryptophan A]", "apparent KD of K4 kissing-loop reporter": 696}
{"sequence": "AUCGUUGUCUGAGGAUAUCGGUUAUCUGUAGUGAUGUUACAGUAUAUUGAUAUUAAAGAUUCUAUUCGAGAAGGCAGACAACGUA [JR_Nu3_ExcFMNB_Sub023]", "apparent KD of K4 kissing-loop reporter": 62.7}
{"sequence": "UCGGGCGGCUGAAGGAGCGGGCGGGCCCGAGUGAUGUUCGGGUGGGCUGUGAGGCCCGGAGCCCAGGUAGGUCGCGGUUCCGCCC [#2 Same State - Arginine B Attempt #28 (HarryS)]", "apparent KD of K4 kissing-loop reporter": 181}
{"sequence": "GGUUCCUCAGUGAUGUUGAGGUGACCUCGGCAGGAUAUAGGCAUUACUAGAAGGGCCAAAAGAACCCUGUGUAGCGACACAGGGA [Beerma]", "apparent KD of K4 kissing-loop reporter": 269}
{"sequence": "AAGGUAUCACCAACUUGUAACAUAGGUGAUACCAGCAUCGAAAGAUGCCCUUGGCAGCACCAACUUGCAGUGAUGUUGCAAGUAA [(T)'-(H)'-(T1)-(T2)-(H1)-(H2)_Design11]", "apparent KD of K4 kissing-loop reporter": 140}
{"sequence": "UGGAUAUCGUUUAGUCUGGUGAGCUCAGAUACCAGACUAGCGAUAGUCCCUUGGCAGCUGAUUAUGAUUGAGUGAUGUUCAAUCG [Theo A Ex t9b]", "apparent KD of K4 kissing-loop reporter": 142}
{"sequence": "AGUGAUGUUUCUUUUAAGAGUGAUGUUUUUCGAGGACCGGUACGGCCGCCACUCGAGUGAUGAGUGCGUUGUUGUGAUGUUUAGU [#12 K4 Tryptophan A Exclusion]", "apparent KD of K4 kissing-loop reporter": 313}
{"sequence": "GCCGUACGCAUGGAUACCAGCUGCGAAGUGAUGUUUCGGGCGAUCAAAGGAUCGCCCUACAGCCCUUGGCAGCCAUGCGUACGGC", "apparent KD of K4 kissing-loop reporter": 117}
{"sequence": "CGCAGUGAUGUUGCGAGUAGAUACAGGGAAGGAGCGCGGUAGUACGCAGGUAGGUCGCCCACGCAGUGAUGUUGCGUCAUAGGGU [Exclusion Arginine A GF6]", "apparent KD of K4 kissing-loop reporter": 93.1}
{"sequence": "AGCAUUUUCAGAAGGAGCGUGAAUUAUUCUUAAGUAUAUUAUACGAGUGAUGUUCGUAUUUCACAGGUAGGUCGCUGAUAUAGCA [JR_SSArginiB_Sub003]", "apparent KD of K4 kissing-loop reporter": 89.2}
{"sequence": "AUAGGCUAGCGAAACGCUAGCCUAACAGAUACCAGUCGCGAAAGCGACCCUUGGCAGCUGCUGAGUGAUGUUCAGGUGAAUGAAU", "apparent KD of K4 kissing-loop reporter": 285}
